Data set [1] deals with T1, GST-PIF3-Flag (Arabidopsis thaliana, UniProt O80536 1-524).
T1 sequence: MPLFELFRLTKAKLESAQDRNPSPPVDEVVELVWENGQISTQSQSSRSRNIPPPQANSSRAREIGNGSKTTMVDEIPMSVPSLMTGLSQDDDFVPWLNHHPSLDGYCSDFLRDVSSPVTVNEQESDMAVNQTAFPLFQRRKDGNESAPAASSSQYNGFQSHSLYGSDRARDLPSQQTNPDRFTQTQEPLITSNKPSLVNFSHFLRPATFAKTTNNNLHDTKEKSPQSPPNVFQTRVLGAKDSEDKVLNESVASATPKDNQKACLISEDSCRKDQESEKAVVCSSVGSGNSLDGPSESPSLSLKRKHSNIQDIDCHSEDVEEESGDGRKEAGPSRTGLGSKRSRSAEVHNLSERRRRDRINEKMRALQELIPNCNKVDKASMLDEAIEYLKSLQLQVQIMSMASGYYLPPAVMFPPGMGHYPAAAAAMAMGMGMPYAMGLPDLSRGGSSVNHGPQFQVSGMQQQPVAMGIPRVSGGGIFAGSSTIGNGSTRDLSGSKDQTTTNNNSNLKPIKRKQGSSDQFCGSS
The data set can be described thus: DPI-ELISA; DPI-ELISA: TBS-T (20 mM Tris-HCl pH 7.5, 180 mM NaCl, 0.1% Tween 20), 5% milk block, 2 pmol probe/well, 100 ng protein, 1 h, competitor 2/10/50 pmol; EMSA: 100. As to conditions: protein: recombinant, tags: N-term GST, chain copies: 2, label: 5' biotin on one strand (probe), blunt. Background: Mobility shift assays separate free from complexed probe on a gel.

The target of data set [2] is T1, GST-PIF3-Flag. The data set can be described thus: competition; EMSA; competes similar to WT; DPI-ELISA: TBS-T (20 mM Tris-HCl pH 7.5, 180 mM NaCl, 0.1% Tween 20), 5% milk block, 2 pmol probe/well, 100 ng protein, 1 h, competitor 2/10/50 pmol; EMSA: 100. As to conditions: protein: recombinant, tags: N-term GST, chain copies: 2, blunt.
Data set [3] concerns the target T1, GST-PIF3-Flag. The data set can be described thus: competition; EMSA; no competition; DPI-ELISA: TBS-T (20 mM Tris-HCl pH 7.5, 180 mM NaCl, 0.1% Tween 20), 5% milk block, 2 pmol probe/well, 100 ng protein, 1 h, competitor 2/10/50 pmol; EMSA: 100. As to conditions: protein: recombinant, tags: N-term GST, chain copies: 2, blunt.
Data set [4] concerns the target T1, GST-PIF3-Flag. Nature of the data set: EMSA; DPI-ELISA: TBS-T (20 mM Tris-HCl pH 7.5, 180 mM NaCl, 0.1% Tween 20), 5% milk block, 2 pmol probe/well, 100 ng protein, 1 h, competitor 2/10/50 pmol; EMSA: 100. As to conditions: protein: recombinant, tags: N-term GST, chain copies: 2, label: 5' biotin on one strand (probe), blunt.

Residue numbers refer to the chain shown, from its start.

B1: RGA1 WT (dsDNA)
DNA 1: GACCCATTAACACGTGGATCCATCACGTGCTGTCAGTTT
DNA 2: AAACTGACAGCACGTGATGGATCCACGTGTTAATGGGTC
Take B1: the binding result in the data set with GST-PIF3-Flag [1] is recorded as “binds”.

B2: RGA1 mut3 (2nd G-box) (dsDNA)
DNA 1: B1 DNA 1 with T28G
DNA 2: B1 DNA 2 with A12C
Take B2: the binding result in the data set with GST-PIF3-Flag [2] is recorded as “binds”.

B3: RGA1 mut2 (1st G-box) (dsDNA)
DNA 1: B1 DNA 1 with T15G
DNA 2: B1 DNA 2 with A25C
Turning to B3, the binding result with GST-PIF3-Flag [2] is reported as “binds”.

B4: AT4G30410 (bHLH159) WT (dsDNA)
DNA 1: ATAGGAGAAGCACATGCATGCACATGCTACGAATGG
DNA 2: CCATTCGTAGCATGTGCATGCATGTGCTTCTCCTAT
Consider B4, for which the binding result with GST-PIF3-Flag [1] is on record as “binds”.

B5: IBH1 WT (dsDNA)
DNA 1: AGGCCATAGCCATGTGCCTTCATGTGGTGGTTGGCC
DNA 2: GGCCAACCACCACATGAAGGCACATGGCTATGGCCT
Take B5: the binding result in the data set with GST-PIF3-Flag [1] is listed as “binds”.

B6: PHYB WT (dsDNA)
DNA 1: ACCATTAGCCCACGTGATCTTGGGCC
DNA 2: GGCCCAAGATCACGTGGGCTAATGGT
Take B6: in the data set with GST-PIF3-Flag [1], the binding result is given as “binds”.

B7: IAA2 WT (dsDNA)
DNA 1: TGAGGCCGCCCATGTGGACACGACTC
DNA 2: GAGTCGTGTCCACATGGGCGGCCTCA
On to B7, for which the binding result with GST-PIF3-Flag [1] is “binds”.

B8: HB2 mut4 (G-box and PBE-box) (dsDNA)
DNA 1: GGGTCAGATCCACGGGAAGTTCCCATGCTTTCCATGC
DNA 2: GCATGGAAAGCATGGGAACTTCCCGTGGATCTGACCC
On to B8, for which the binding result with GST-PIF3-Flag [3] is “no binding”.

B9: ATHB-2 (HB2) WT (dsDNA)
DNA 1: B8 DNA 1 with G15T, C23A
DNA 2: B8 DNA 2 with G15T, C23A
Turning to B9, in the data set with GST-PIF3-Flag [4], the binding result is “binds”.

B10: HB2 mut2 (G-box) (dsDNA)
DNA 1: B8 DNA 1 with C23A
DNA 2: B8 DNA 2 with G15T
With B10, the binding result with GST-PIF3-Flag [3] was “no binding”.

B11: HB2 mut5 (PBE-box) (dsDNA)
DNA 1: B8 DNA 1 with G15T
DNA 2: B8 DNA 2 with C23A
With B11, the binding result with GST-PIF3-Flag [2] is “binds”.

B12: PIL1b mut2 (1st G-box) (dsDNA)
DNA 1: ACGCGGCATTCACGGGAAGTGCACGTGAACTTGGCCA
DNA 2: TGGCCAAGTTCACGTGCACTTCCCGTGAATGCCGCGT
For B12, the binding result with GST-PIF3-Flag [2] is on record as “binds”.

B13: PIL1b WT (dsDNA)
DNA 1: B12 DNA 1 with G15T
DNA 2: B12 DNA 2 with C23A
With B13, the binding result in the data set with GST-PIF3-Flag [4] is listed as “binds”.

B14: PIL1b mut3 (2nd G-box) (dsDNA)
DNA 1: B12 DNA 1 with G15T, T26G
DNA 2: B12 DNA 2 with A12C, C23A
As for B14, the binding result with GST-PIF3-Flag [2] is reported as “binds”.

The record behind these values is PMC3561105, “A Quartet of PIF bHLH Factors Provides a Transcriptionally Centered Signaling Hub That Regulates Seedling Morphogenesis through Differential Expression-Patterning of Shared Target Genes in Arabidopsis”.
